FireProtDB (doi:10.1038/9384)

Conditions: Bos taurus; pH 5.3; 5 °C; GdnHCl; Fluorescence; Sodium acetate 0.02 M; whole UniProt chain shown

B1: Acyl-CoA-binding protein wild type, P07107 (protein)
chain: MSQAEFDKAAEEVKHLKTKPADEEMLFIYSHYKQATVGDINTERPGMLDFKGKAKWDAWNELKGTSKEDAMKAYIDKVEELKKKYGI
For B1, the denaturant m value was 3.53 kcal/mol/M and the unfolding free energy was 8.08 kcal/mol.
